# Biological target: FLAG-GluK2 (UniProt P42260)
# Test: co-IP; COS-7 cells transfected with combinations of FLAG-GluK2, Neto2 or Neto2Δ7 and GRIP(PDZ4-7)-myc; lysates immunoprecipitated with an anti-GluK2 antibody, western blot
# Chain of UniProt P42260 (P42260 32-908): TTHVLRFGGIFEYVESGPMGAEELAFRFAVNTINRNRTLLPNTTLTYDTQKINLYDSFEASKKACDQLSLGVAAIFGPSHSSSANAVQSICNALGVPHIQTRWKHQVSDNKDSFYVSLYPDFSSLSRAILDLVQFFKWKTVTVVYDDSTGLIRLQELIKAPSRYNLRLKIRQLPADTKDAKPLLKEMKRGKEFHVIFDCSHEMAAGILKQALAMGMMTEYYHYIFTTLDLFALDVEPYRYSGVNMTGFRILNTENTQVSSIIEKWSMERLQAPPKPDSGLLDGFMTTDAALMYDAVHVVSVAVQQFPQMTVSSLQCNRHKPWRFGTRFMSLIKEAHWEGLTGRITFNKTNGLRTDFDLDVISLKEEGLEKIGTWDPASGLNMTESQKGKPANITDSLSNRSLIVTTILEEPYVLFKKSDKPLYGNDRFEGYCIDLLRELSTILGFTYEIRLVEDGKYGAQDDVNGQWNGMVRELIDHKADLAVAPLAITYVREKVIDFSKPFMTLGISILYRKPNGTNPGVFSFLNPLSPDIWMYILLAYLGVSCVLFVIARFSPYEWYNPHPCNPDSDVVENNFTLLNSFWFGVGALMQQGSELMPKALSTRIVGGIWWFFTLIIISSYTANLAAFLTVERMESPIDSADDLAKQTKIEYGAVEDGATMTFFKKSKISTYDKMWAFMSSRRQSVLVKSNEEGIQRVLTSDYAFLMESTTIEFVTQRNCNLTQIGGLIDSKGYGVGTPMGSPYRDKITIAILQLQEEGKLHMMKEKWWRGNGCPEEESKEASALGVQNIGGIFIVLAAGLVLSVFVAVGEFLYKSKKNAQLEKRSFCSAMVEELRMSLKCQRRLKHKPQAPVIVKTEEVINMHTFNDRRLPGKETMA
substance,measurement,value
C-terminal myc-tagged GRIP(PDZ4-7) (domain or fragment),"amount coimmunoprecipitated with GluK2 when Neto2 is coexpressed, percent of signal in the absence of Neto2 (% of signal in the absence of Neto2)",250
same,"amount coimmunoprecipitated with GluK2 when Neto2Δ7 is coexpressed, percent of signal in the absence of Neto2 (% of signal in the absence of Neto2)",103
